What was measured:
[1] = test system: HeLa Kyoto; experiment: solubility in G1/S (NP-40 vs SDS abundance) (log2 ratio); higher = more soluble; settings: cell cycle stage: G1/S
[2] = test system: HeLa Kyoto; experiment: melting temperature (median over replicates), in situ; higher = more thermally stable
[3] = test system: HeLa Kyoto; experiment: solubility change mitosis vs G1/S (difference of NP-40 vs SDS log2 ratios) (log2 ratio difference); higher = more soluble in mitosis
[4] = test system: HeLa Kyoto; experiment: thermal stability score vs G1/S (z-score of summed log2 fold changes over temperatures); higher = more thermally stable than in G1/S
[5] = cell cycle stage: early G1 (4.5 h after nocodazole release)
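Wherever melting temperature (median over replicates), in situ is given: HeLa Kyoto cells synchronized by double thymidine or nocodazole block, proteins quantified by TMT10plex mass spectrometry, three independent biological replicates.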
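Wherever solubility change mitosis vs G1/S (difference of NP-40 vs SDS log2 ratios) is given: synchronized HeLa Kyoto cells (double thymidine block for G1/S, nocodazole release for mitosis), protein amounts in NP-40 versus SDS lysates quantified by mass spectrometry, three biological replicates.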
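Wherever solubility in G1/S (NP-40 vs SDS abundance) is given: HeLa Kyoto cells arrested at G1/S by double thymidine block, proteins quantified by TMT10plex mass spectrometry in mild NP-40 versus SDS extracts, three biological replicates.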
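Wherever thermal stability score vs G1/S (z-score of summed log2 fold changes over temperatures) is given: synchronized HeLa Kyoto cells, proteins quantified by TMT10plex mass spectrometry, three biological replicates, mitosis taken 0.5 h after nocodazole release, G1/S directly after double thymidine block.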

Sequence | solubility in G1/S (log2) [1] | melting temperature ([2]; cell cycle stage: G1/S) | melting temperature ([2]; cell cycle stage: mitosis) | solubility change mitosis (log2) [3] | thermal stability score [4, 5] | thermal stability score ([4]; cell cycle stage: mitosis)
MTEGTCLRRRGGPYKTEPATDLGRWRLNCERGRQTWTYLQDERAGREQTGLEAYALGLDTKNYFKDLPKAHTAFEGALNGMTFYVGLQAEDGHWTGDYGGPLFLLPGLLITCHVARIPLPAGYREEIVRYLRSVQLPDGGWGLHIEDKSTVFGTALNYVSLRILGVGPDDPDLVRARNILHKKGGAVAIPSWGKFWLAVLNVYSWEGLNTLFPEMWLFPDWAPAHPSTLWCHCRQVYLPMSYCYAVRLSAAEDPLVQSLRQELYVEDFASIDWLAQRNNVAPDELYTPHSWLLRVVYALLNLYEHHHSAHLRQRAVQKLYEHIVADDRFTKSISIGPISKTINMLVRWYVDGPASTAFQEHVSRIPDYLWMGLDGMKMQGTNGSQIWDTAFAIQALLEAGGHHRPEFSSCLQKAHEFLRLSQVPDNPPDYQKYYRQMRKGGFSFSTLDCGWIVSDCTAEALKAVLLLQEKCPHVTEHIPRERLCDAVAVLLNMRNPDGGFATYETKRGGHLLELLNPSEVFGDIMIDYTYVECTSAVMQALKYFHKRFPEHRAAEIRETLTQGLEFCRRQQRADGSWEGSWGVCFTYGTWFGLEAFACMGQTYRDGTACAEVSRACDFLLSRQMADGGWGEDFESCEERRYLQSAQSQIHNTCWAMMGLMAVRHPDIEAQERGVRCLLEKQLPNGDWPQENIAGVFNKSCAISYTSYRNIFPIWALGRFSQLYPERALAGHP [LSS] | -0.253 | 52.7 °C | 52.6 °C | 0.0123 | 0.214 | 0.242
MTFYLFGIRSFPKLWKSPYLGLGPGHSYVSLFLADRCGIRNQQRLFSLKTMSPQNTKATNLIAKARYLRKDEGSNKQVYSVPHFFLAGAAKERSQMNSQTEDHALAPVRNTIQLPTQPLNSEEWDKLKEDLKENTGKTSFESWIISQMAGCHSSIDVAKSLLAWVAAKNNGIVSYDLLVKYLYLCVFHMQTSEVIDVFEIMKARYKTLEPRGYSLLIRGLIHSDRWREALLLLEDIKKVITPSKKNYNDCIQGALLHQDVNTAWNLYQELLGHDIVPMLETLKAFFDFGKDIKDDNYSNKLLDILSYLRNNQLYPGESFAHSIKTWFESVPGKQWKGQFTTVRKSGQCSGCGKTIESIQLSPEEYECLKGKIMRDVIDGGDQYRKTTPQELKRFENFIKSRPPFDVVIDGLNVAKMFPKVRESQLLLNVVSQLAKRNLRLLVLGRKHMLRRSSQWSRDEMEEVQKQASCFFADDISEDDPFLLYATLHSGNHCRFITRDLMRDHKACLPDAKTQRLFFKWQQGHQLAIVNRFPGSKLTFQRILSYDTVVQTTGDSWHIPYDEDLVERCSCEVPTKWLCLHQKT [KIAA0391] | 0.189 | 47.8 °C | 48.4 °C | -0.118 | 0.296 | 1.88
MTHWFHRNPLKATAPVSFNYYGVVTGPSASKICNDLRSSRARLLELFTDLSCNPEMMKNAADSYFSLLQGFINSLDESTQESKLRYIQNFKWTDTLQGQVPSAQQDAVFELISMGFNVALWYTKYASRLAGKENITEDEAKEVHRSLKIAAGIFKHLKESHLPKLITPAEKGRDLESRLIEAYVIQCQAEAQEVTIARAIELKHAPGLIAALAYETANFYQKADHTLSSLEPAYSAKWRKYLHLKMCFYTAYAYCYHGETLLASDKCGEAIRSLQEAEKLYAKAEALCKEYGETKGPGPTVKPSGHLFFRKLGNLVKNTLEKCQRENGFIYFQKIPTEAPQLELKANYGLVEPIPFEFPPTSVQWTPETLAAFDLTKRPKDDSTKPKPEEEVKPVKEPDIKPQKDTGCYIS [BROX] | 0.511 | 49.6 °C | 49.8 °C | -0.114 | -0.298 | 0.407
MTILPKKKPPPPDADPANEPPPPGPMPPAPRRGGGVGVGGGGTGVGGGDRDRDSGVVGARPRASPPPQGPLPGPPGALHRWALAVPPGAVAGPRPQQASPPPCGGPGGPGGGPGDALGAAAAGVGAAGVVVGVGGAVGVGGCCSGPGHSKRRRQAPGVGAVGGGSPEREEVGAGYNSEDEYEAAAARIEAMDPATVEQQEHWFEKALRDKKGFIIKQMKEDGACLFRAVADQVYGDQDMHEVVRKHCMDYLMKNADYFSNYVTEDFTTYINRKRKNNCHGNHIEMQAMAEMYNRPVEVYQYSTGTSAVEPINTFHGIHQNEDEPIRVSYHRNIHYNSVVNPNKATIGVGLGLPSFKPGFAEQSLMKNAIKTSEESWIEQQMLEDKKRATDWEATNEAIEEQVARESYLQWLRDQEKQARQVRGPSQPRKASATCSSATAAASSGLEEWTSRSPRQRSSASSPEHPELHAELGMKPPSPGTVLALAKPPSPCAPGTSSQFSAGADRATSPLVSLYPALECRALIQQMSPSAFGLNDWDDDEILASVLAVSQQEYLDSMKKNKVHRDPPPDKS [OTUD5] | 0.259 | 51.6 °C | 52.4 °C | 0.178 | -1.93 | 0.592
MTKSNGEEPKMGGRMERFQQGVRKRTLLAKKKVQNITKEDVKSYLFRNAFVLLTVTAVIVGTILGFTLRPYRMSYREVKYFSFPGELLMRMLQMLVLPLIISSLVTGMAALDSKASGKMGMRAVVYYMTTTIIAVVIGIIIVIIIHPGKGTKENMHREGKIVRVTAADAFLDLIRNMFPPNLVEACFKQFKTNYEKRSFKVPIQANETLVGAVINNVSEAMETLTRITEELVPVPGSVNGVNALGLVVFSMCFGFVIGNMKEQGQALREFFDSLNEAIMRLVAVIMWYAPVGILFLIAGKIVEMEDMGVIGGQLAMYTVTVIVGLLIHAVIVLPLLYFLVTRKNPWVFIGGLLQALITALGTSSSSATLPITFKCLEENNGVDKRVTRFVLPVGATINMDGTALYEALAAIFIAQVNNFELNFGQIITISITATAASIGAAGIPQAGLVTMVIVLTSVGLPTDDITLIIAVDWFLDRLRTTTNVLGDSLGAGIVEHLSRHELKNRDVEMGNSVIEENEMKKPYQLIAQDNETEKPIDSETKM [SLC1A3] | -0.131 | 61.8 °C | 58 °C | 0.0284 | -4.57 | -5.19
MTLDMDAVLSDFVRSTGAEPGLARDLLEGKNWDVNAALSDFEQLRQVHAGNLPPSFSEGSGGSRTPEKGFSDREPTRPPRPILQRQDDIVQEKRLSRGISHASSSIVSLARSHVSSNGGGGGSNEHPLEMPICAFQLPDLTVYNEDFRSFIERDLIEQSMLVALEQAGRLNWWVSVDPTSQRLLPLATTGDGNCLLHAASLGMWGFHDRDLMLRKALYALMEKGVEKEALKRRWRWQQTQQNKESGLVYTEDEWQKEWNELIKLASSEPRMHLGTNGANCGGVESSEEPVYESLEEFHVFVLAHVLRRPIVVVADTMLRDSGGEAFAPIPFGGIYLPLEVPASQCHRSPLVLAYDQAHFSALVSMEQKENTKEQAVIPLTDSEYKLLPLHFAVDPGKGWEWGKDDSDNVRLASVILSLEVKLHLLHSYMNVKWIPLSSDAQAPLAQPESPTASAGDEPRSTPESGDSDKESVGSSSTSNEGGRRKEKSKRDREKDKKRADSVANKLGSFGKTLGSKLKKNMGGLMHSKGSKPGGVGTGLGGSSGTETLEKKKKNSLKSWKGGKEEAAGDGPVSEKPPAESVGNGGSKYSQEVMQSLSILRTAMQGEGKFIFVGTLKMGHRHQYQEEMIQRYLSDAEERFLAEQKQKEAERKIMNGGIGGGPPPAKKPEPDAREEQPTGPPAESRAMAFSTGYPGDFTIPRPSGGGVHCQEPRRQLAGGPCVGGLPPYATFPRQCPPGRPYPHQDSIPSLEPGSHSKDGLHRGALLPPPYRVADSYSNGYREPPEPDGWAGGLRGLPPTQTKCKQPNCSFYGHPETNNFCSCCYREELRRREREPDGELLVHRF [OTUD7B] | 0.376 | 50.8 °C | 50.9 °C | -0.0993 | 0.347 | 0.243
MTLESMMACCLSDEVKESKRINAEIEKQLRRDKRDARRELKLLLLGTGESGKSTFIKQMRIIHGAGYSEEDKRGFTKLVYQNIFTAMQAMIRAMETLKILYKYEQNKANALLIREVDVEKVTTFEHQYVSAIKTLWEDPGIQECYDRRREYQLSDSAKYYLTDVDRIATLGYLPTQQDVLRVRVPTTGIIEYPFDLENIIFRMVDVGGQRSERRKWIHCFENVTSIMFLVALSEYDQVLVESDNENRMEESKALFRTIITYPWFQNSSVILFLNKKDLLEDKILYSHLVDYFPEFDGPQRDAQAAREFILKMFVDLNPDSDKIIYSHFTCATDTENIRFVFAAVKDTILQLNLKEYNLV [GNA11] | -0.276 | 51.1 °C | 50.6 °C | -0.121 | 0.848 | 0.911
MTMDKSELVQKAKLAEQAERYDDMAAAMKAVTEQGHELSNEERNLLSVAYKNVVGARRSSWRVISSIEQKTERNEKKQQMGKEYREKIEAELQDICNDVLELLDKYLIPNATQPESKVFYLKMKGDYFRYLSEVASGDNKQTTVSNSQQAYQEAFEISKKEMQPTHPIRLGLALNFSVFYYEILNSPEKACSLAKTAFDEAIAELDTLNEESYKDSTLIMQLLRDNLTLWTSENQGDEGDAGEGEN [YWHAB] | 0.324 | 52.6 °C | 52.8 °C | 0.402 | -1.46 | -2.76
